Target: T1, Hexa-histidine-tagged MAGE-A4 (human (open reading frame amplified …, UniProt P43358 1-317))
T1 construct: MAGE-A4, full-length recombinant; the MAGE-A4 open reading frame was PCR amplified from H1299 genomic DNA; Expressed from pRSET; also called His-MAGE-A4; 6 × His–MAGE-A4; source: E. coli BL21 (DE3), purified
T1 sequence (looked up): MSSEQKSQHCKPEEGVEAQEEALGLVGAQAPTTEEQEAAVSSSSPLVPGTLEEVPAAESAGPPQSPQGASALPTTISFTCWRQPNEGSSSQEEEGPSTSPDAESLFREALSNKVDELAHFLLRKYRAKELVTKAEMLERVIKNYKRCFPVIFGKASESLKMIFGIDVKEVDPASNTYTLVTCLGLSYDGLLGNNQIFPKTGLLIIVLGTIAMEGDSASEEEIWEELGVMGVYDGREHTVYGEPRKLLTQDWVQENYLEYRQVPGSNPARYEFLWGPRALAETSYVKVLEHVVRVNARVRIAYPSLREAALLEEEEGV
Assay: pull-down; recombinant 6 × His–MAGE-A4 (1 μg) incubated in 1 ml CSK+1% BSA with GST or GST–RAD18 (0.3 μg), 2 h at 4 °C; glutathione sepharose beads; washed three times in CSK+1% BSA; immunoblot
Settings: both partners purified

B1: GST–RAD18 267-402 (domain or fragment, UniProt Q9NS91 267-402, looked up)
chain: IQGNKQQLIKRHQEFVHMYNAQCDALHPKSAAEIVREIENIEKTRMRLEASKLNESVMVFTKDQTEKEIDEIHSKYRKKHKSEFQLLVDQARKGYKKIAGMSQKTVTITKEDESTEKLSSVCMGQEDNMTSVTNHF
notes: Expressed from pGEX2T; source: E. coli BL21 (DE3), purified
- binding result: binds
